In patent publication US20230227537A1 (VIB VZW, published 2023):

What was measured:
[1] = target: SARS-CoV-2 spike, full length, on cells or on pseudotyped/authentic virus (SARS-CoV-2, UniProt P0DTC2 14-1273); assay: cell-based or functional assay
[2] = target: Mouse IgG1 Fc fused SARS-CoV-2 RBD (Sino Biological) (SARS-CoV-2; mouse, UniProt P0DTC2 330-518); assay: BLI, immobilized RBD-mFc

B1: D72-55: VHH72_h1_E1D_S56A-(G4S)3-VHH72_h3_S56A-GS-hIgG1hinge_EPKSCdel-hIgG1Fc_LALAPG_Kdel (Fc fusion)
chain: DVQLVESGGGLVQPGGSLRLSCAASGRTFSEYAMGWFRQAPGKEREFVATISWSGGATYYTDSVKGRFTISRDNAKNTVYLQMNSLRPEDTAVYYCAAAGLGTVVSEWDYDYDYWGQGTLVTVSSGGGGSGGGGSGGGGSDVQLVESGGGLVQPGGSLRLSCAASGRTFSEYAMGWFRQAPGKEREFVATISWSGGATYYTDSVKGRFTISRDNAKNTVYLQMNSLRPEDTAVYYCAAAGLGTVVSEWDYDYDYWGQGTLVTVSSGSDKTHTCPPCPAPEAAGGPSVFLFPPKPKDTLMISRTPEVTCVVVDVSHEDPEVKFNWYVDGVEVHNAKTKPREEQYNSTYRVVSVLTVLHQDWLNGKEYKCKVSNKALGAPIEKTISKAKGQPREPQVYTLPPSRDELTKNQVSLTCLVKGFYPSDIAVEWESNGQPENNYKTTPPVLDSDGSFFLYSKLTVDKSRWQQGNVFSCSVMHEALHNHYTQKSLSLSPG
notes: Tetravalent; ExpiCHO
[1]
  PRNT50, authentic SARS-CoV-2: 0.02 µg/mL
  fold lower PRNT50 than the parental construct: 50 fold
[2]
  fold higher affinity than its bivalent counterpart: > 100 fold
